This note sets out measurements from patent US20260297205 (published 2026).

Substitutions are numbered along the chain they refer to.

This assay has as its target human growth hormone (GH) (human, UniProt P01241). Description: SPR, 20C. For orientation: Surface plasmon resonance follows binding to a sensor surface in real time, without labels.

Chain of human growth hormone (GH) (P01241 27-217): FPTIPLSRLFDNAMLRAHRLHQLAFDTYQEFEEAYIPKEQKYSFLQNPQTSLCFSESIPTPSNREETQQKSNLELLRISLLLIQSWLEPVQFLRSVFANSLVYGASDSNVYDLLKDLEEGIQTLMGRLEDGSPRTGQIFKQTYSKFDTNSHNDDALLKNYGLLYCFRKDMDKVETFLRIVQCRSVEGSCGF

B1: GH19 (antibody, V domains shown)
VH: EVQLVESGGGLVQPGGSLRLSCAASGFNFSYSYIHWVRQAPGKGLEWVASIYSYSGYTSYADSVKGRFTISADTSKNTAYLQMNSLRAEDTAVYYCARYKWWAMDYWGQGTLVTV
VL: DIQMTQSPSSLSASVGDRVTITCRASQSVSSAVAWYQQKPGKAPKLLIYSASSLYSGVPSRFSGSRSGTDFTLTISSLQPEDFATYYCQQSGSWPITFGQGTKVEIKR
The Kd is the concentration at which binding is half-saturated. Read a low Kd as a tighter complex. In the case of B1, binding was characterised by a dissociation constant (Kd) of 5.9 nM.

B2: GH18 (antibody, V domains shown)
VH: EVQLVESGGGLVQPGGSLRLSCAASGFNFYSSYIHWVRQAPGKGLEWVASIYSYSGYTSYADSVKGRFTISADTSKNTAYLQMNSLRAEDTAVYYCARYKEPFGMDYWGQGTLVTV
VL: B1 VL with G92N, S93Y, W94M, I96L
As for B2, the affinity, expressed as Kd, was 12.5 nM.

B3: GH25 (antibody, V domains shown)
VH: EVQLVESGGGLVQPGGSLRLSCAASGFNFSYYSIHWVRQAPGKGLEWVASISSYYGYTSYADSVKGRFTISADTSKNTAYLQMNSLRAEDTAVYYCARYFLGMDYWGQGTLVTV
VL: B1 VL with S91Y, G92R, S93Y, W94P
Molecule B3 yielded an equilibrium dissociation constant (Kd) of 0.14 nM.

B4: GH42 (antibody, V domains shown)
VH: EVQLVESGGGLVQPGGSLRLSCAASGFNFSSSYIHWVRQAPGKGLEWVASISSSSGSTSYADSVKGRFTISADTSKNTAYLQMNSLRAEDTAVYYCARSPWYVYWYFGSALDYWGQGTLVTV
VL: B1 VL with G92S, W94S, P95L
Molecule B4 yielded a Kd of 2.2 nM.

B5: GH9 (antibody, V domains shown)
VH: B1 VH with F29V, S30Y, Y31S, Y99H, K100S, W101S
VL: B1 VL with G92S, S93F, W94V, I96L
Turning to B5, the affinity, expressed as Kd, was 18 nM.

B6: GH23 (antibody, V domains shown)
VH: B1 VH with F29V, Y31S, Y99F, K100W, W101V
VL: B1 VL with G92S, S93Y, W94I, I96L
In turn, B6 showed a Kd of 0.17 nM.

B7: GH10 (antibody, V domains shown)
VH: EVQLVESGGGLVQPGGSLRLSCAASGFNFYSSSIHWVRQAPGKGLEWVAYISPYSGYTSYADSVKGRFTISADTSKNTAYLQMNSLRAEDTAVYYCARIAYKWYMPYYYGMDYWGQGTLVTV
VL: B1 VL with G92L, W94S, P95L, I96V
In turn, B7 gave an equilibrium dissociation constant (Kd) of 3.6 nM.

B8: GH41 (antibody, V domains shown)
VH: EVQLVESGGGLVQPGGSLRLSCAASGFNFSSSSIHWVRQAPGKGLEWVASISPYSGYTSYADSVKGRFTISADTSKNTAYLQMNSLRAEDTAVYYCARGYGGWYWWYTFAFDYWGQGTLVTV
VL: DIQMTQSPSSLSASVGDRVTITCRASQSVSSAVAWYQQKPGKAPKLLIYSASSLYSGVPSRFSGSRSGTDFTLTISSLQPEDFATYYCQQSSSSELLTFGQGTKVEIKR
The molecule B8 showed a Kd of 2.6 nM.
